Results reported in IntAct's records for PubMed 34237462.

B1: Anterior gradient protein 2 homolog (Homo sapiens), O95994 (parent)
chain: MEKIPVSAFLLLVALSYTLARDTTVKPGAKKDTKDSRPKLPQTLSRGWGDQLIWTQTYEEALYKSKTSNKPLMIIHHLDECPHSQALKKVFAENKEIQKLAEQFVLLNLVYETTDKHLSPDGQYVPRIMFVDPSLTVRADITGRYSNRLYAYEPADTALLLDNMKKALKLLKTEL

Variants of: B1
Settings: with muc2_human MUC2, Q02817

Row | Variant | effect of a mutation on the interaction
1 | H117Y | decreasing interaction strength
